Data on one substance can be found in patent US20110065592A1.

The assay has as its target RNA Pol II (UniProt P24928). As to the kind of experiment: cell-based or functional assay.

Where only a bound is given, the exact number is not on record here.

In the case of “anti RNA Pol II antibody (Santa Cruz sc-899)”, the cT of real-time PCR for GAPDH gDNA released from wells coated with the RNA Pol II antibody, compared with wells coated with the unspecific anti IgG antibody was below 5 cT; the delta between the cT's obtained using the specific RNA Pol II antibody and the unspecific anti-mouse IgG antibody (all three washing procedures) was above 0 cT; the delta between the cT's obtained using the specific RNA Pol II antibody and the unspecific anti-mouse IgG antibody (washing with LS buffer and TE) amounted to 3.3 cT.
